Key:
[1] = biological target: T1, neuropilin 1 (NRP1) on human umbilical vein endothelial cells (HUVEC) (human, UniProt O14786 22-923); experiment: flow cytometry, Sema3A/Fc (2 µg/ml) on HUVEC, anti-human IgG Fc detection
T1 construct: whole, on cells; also called cell-surface NRP1
Procedure: (§1) The results shown in FIGS. 8-12 indicate that oligo(G) can promote the internalization of NRP1 by bridging NRP1 to the scavenger SREC-I receptor on endothelial cells. This should disrupt the binding of the NRP1 ligands Sema3A and VEGF165 to endothelial cells due to receptor internalization. To verify this hypothesis, HUVEC were incubated at 37° C. for 1 hour with or without phosphorothioate G18 (sG18) (4 or 16 μg/ml). Subsequently, the cells were washed and binding of Sema3A/Fc and biotin-labeled VEGF165 tested after incubation at 4° C. for 1 hour. Bound Sema3A/Fc was detected by flow cytometry after staining with FITC-conjugated goat anti-human IgG-Fc; bound VEGF165 was detected by flow cytometry after staining with avidin-FITC.

[2] = biological target: T1, neuropilin 1 (NRP1) on human umbilical …; experiment: flow cytometry, biotinylated VEGF165 (100 ng/ml) on HUVEC, avidin-FITC detection
Procedure: as §1

T1 sequence (O14786 22-923): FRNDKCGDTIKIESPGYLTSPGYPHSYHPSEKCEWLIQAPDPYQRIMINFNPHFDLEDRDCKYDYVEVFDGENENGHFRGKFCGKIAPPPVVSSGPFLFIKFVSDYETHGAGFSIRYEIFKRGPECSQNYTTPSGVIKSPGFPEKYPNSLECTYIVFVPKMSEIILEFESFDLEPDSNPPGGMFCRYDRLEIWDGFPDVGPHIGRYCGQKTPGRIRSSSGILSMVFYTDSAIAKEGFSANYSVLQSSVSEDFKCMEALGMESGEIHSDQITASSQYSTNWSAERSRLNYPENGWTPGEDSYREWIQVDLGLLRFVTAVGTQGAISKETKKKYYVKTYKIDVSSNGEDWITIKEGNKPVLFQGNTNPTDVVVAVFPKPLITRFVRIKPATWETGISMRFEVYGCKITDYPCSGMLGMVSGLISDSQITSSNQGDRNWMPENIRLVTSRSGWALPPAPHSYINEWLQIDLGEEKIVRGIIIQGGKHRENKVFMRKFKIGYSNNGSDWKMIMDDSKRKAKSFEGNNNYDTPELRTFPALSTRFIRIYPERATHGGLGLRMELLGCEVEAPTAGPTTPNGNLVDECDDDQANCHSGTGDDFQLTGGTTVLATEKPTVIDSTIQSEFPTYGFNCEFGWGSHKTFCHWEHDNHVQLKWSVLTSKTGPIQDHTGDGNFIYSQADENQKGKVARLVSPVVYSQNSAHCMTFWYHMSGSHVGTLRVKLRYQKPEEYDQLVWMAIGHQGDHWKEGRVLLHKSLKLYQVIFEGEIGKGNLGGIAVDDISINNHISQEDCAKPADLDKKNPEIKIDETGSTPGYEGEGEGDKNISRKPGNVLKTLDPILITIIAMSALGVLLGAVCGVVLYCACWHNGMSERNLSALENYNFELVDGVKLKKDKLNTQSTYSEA

| binding result [1] | binding result [2] | Binder |
| --- | --- | --- |
| binds | – | human Sema3A/Fc (Fc fusion, UniProt Q14563 26-771, looked up, Commercial reagent (R&D Systems); not shown: Fc portion) KNNVPRLKLSYKEMLESNNVITFNGLANSSSYHTFLLDEERSRLYVGAKDHIFSFDLVNIKDFQKIVWPVSYTRRDECKWAGKDILKECANFIKVLKAYNQTHLYACGTGAFHPICTYIEIGHHPEDNIFKLENSHFENGRGKSPYDPKLLTASLLIDGELYSGTAADFMGRDFAIFRTLGHHHPIRTEQHDSRWLNDPKFISAHLISESDNPEDDKVYFFFRENAIDGEHSGKATHARIGQICKNDFGGHRSLVNKWTTFLKARLICSVPGPNGIDTHFDELQDVFLMNFKDPKNPVVYGVFTTSSNIFKGSAVCMYSMSDVRRVFLGPYAHRDGPNYQWVPYQGRVPYPRPGTCPSKTFGGFDSTKDLPDDVITFARSHPAMYNPVFPMNNRPIVIKTDVNYQFTQIVVDRVDAEDGQYDVMFIGTDVGTVLKVVSIPKETWYDLEEVLLEEMTVFREPTAISAMELSTKQQQLYIGSTAGVAQLPLHRCDIYGKACAECCLARDPYCAWDGSACSRYFPTAKRRTRRQDIRNGDPLTHCSDLHHDNHHGHSPEERIIYGVENSSTFLECSPKSQRALVYWQFQRRNEERKEEIRVDDHIIRTDQGLLLRSLQQKDSGNYLCHAVEHGFIQTLLKVTLEVIDTEHLEELLHKDDDGDGSKTKEMSNSMTPSQKVWYRDFMQLINHPNLNTMDEFCEQVWKRDRKQRRQRPGHTPGNSNKWKHLQENKKGRNRRTHEFERAPRSV |
| – | binds | Recombinant human VEGF165 (biotinylated) (ligand, UniProt P15692-4 27-191, looked up, biotinylated (sites not given), Commercial reagent (R&D Systems); also called biotin-VEGF165; biotin-labeled VEGF165) APMAEGGGQNHHEVVKFMDVYQRSYCHPIETLVDIFQEYPDEIEYIFKPSCVPLMRCGGCCNDEGLECVPTEESNITMQIMRIKPHQGQHIGEMSFLQHNKCECRPKKDRARQENPCGPCSERRKHLFVQDPQTCKCSCKNTDSRCKARQLELNERTCRCDKPRR |

Source: US20100297124A1 (published 2010)
